Measurements: patent publication US20240301062A1 (BEIGENE SWITZERLAND, published 2024)

T1: human claudin 6 (CLDN6) (human, UniProt P56747 1-220)
T1 construct: also called human CLDN6; hCLDN6
T1 sequence: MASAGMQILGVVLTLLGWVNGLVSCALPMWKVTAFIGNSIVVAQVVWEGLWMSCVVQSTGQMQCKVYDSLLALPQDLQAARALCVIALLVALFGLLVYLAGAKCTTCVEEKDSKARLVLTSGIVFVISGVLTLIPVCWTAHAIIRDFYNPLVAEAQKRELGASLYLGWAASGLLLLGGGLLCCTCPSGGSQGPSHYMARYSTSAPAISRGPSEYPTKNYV

B1: BG87P-Bz0 (antibody, V domains shown)
VH: QIQLVQSGAEVKKPGASVKVSCKASGYSFTDYHINWVRQAPGQRLEWMGWIYPGSGYTKYNEKFKVRVTLTVDTSASTAYMELSSLRSEDTAVYFCARSGIYHYVSSYYFDHWGKGTTVTVSS
VL: DIQMTQSPSTLSASVGDRVTITCKASQDVGTAVAWYQQKPGKSPKLLIYWASTRHTGVPSRFSGSGSGTEFTLTISSVQPDDFATYFCQQYSSYTFGGGTKVEIK
notes: also called BG87-Bz0
B2: BG87P-Bz1 (antibody, V domains shown)
VH: QVQLVQSGAEVKKPGASVKVSCKASGYSFTDYHINWVRQAPGQRLEWMGWIYPGSGYTKYNEKFKVRVTLTVDTSASTAYMELSSLRSEDTAVYFCARSGIYHYVSSYYFDHWGKGTTVTVSS
VL: DIQMTQSPSTLSASVGDRVTITCKASQDVGTAVAWYQQKPGKSPKLLIYWASTRHTGVPSRFSGSGSGTEFTLTISSVQPDDFATYFCQQYSSYTFGGGTKVEIK
B3: BG87P-Bz2 (antibody, V domains shown)
VH: QIQLVQSGAEVKKPGASVKVSCKASGYTFTDYHINWVRQAPGQRLEWMGWIYPGSGYTKYNEKFKVRVTLTVDTSASTAYMELSSLRSEDTAVYFCARSGIYHYVSSYYFDHWGKGTTVTVSS
VL: DIQMTQSPSTLSASVGDRVTITCKASQDVGTAVAWYQQKPGKSPKLLIYWASTRHTGVPSRFSGSGSGTEFTLTISSVQPDDFATYFCQQYSSYTFGGGTKVEIK
B4: BG87P-Bz3 (antibody, V domains shown)
VH: QIQLVQSGAEVKKPGASVKVSCKASGYSFTDYHINWVRQAPGQRLEWMGWIYPGSGYTKYNEKFKVRVTITVDTSASTAYMELSSLRSEDTAVYFCARSGIYHYVSSYYFDHWGKGTTVTVSS
VL: DIQMTQSPSTLSASVGDRVTITCKASQDVGTAVAWYQQKPGKSPKLLIYWASTRHTGVPSRFSGSGSGTEFTLTISSVQPDDFATYFCQQYSSYTFGGGTKVEIK
B5: BG87P-Bz4 (antibody, V domains shown)
VH: QIQLVQSGAEVKKPGASVKVSCKASGYSFTDYHINWVRQAPGQRLEWMGWIYPGSGYTKYNEKFKVRVTLTRDTSASTAYMELSSLRSEDTAVYFCARSGIYHYVSSYYFDHWGKGTTVTVSS
VL: DIQMTQSPSTLSASVGDRVTITCKASQDVGTAVAWYQQKPGKSPKLLIYWASTRHTGVPSRFSGSGSGTEFTLTISSVQPDDFATYFCQQYSSYTFGGGTKVEIK
B6: BG87P-Bz5 (antibody, V domains shown)
VH: QIQLVQSGAEVKKPGASVKVSCKASGYSFTDYHINWVRQAPGQRLEWMGWIYPGSGYTKYNEKFKVRVTLTVDTSASTAYMELSSLRSEDTAVYYCARSGIYHYVSSYYFDHWGKGTTVTVSS
VL: DIQMTQSPSTLSASVGDRVTITCKASQDVGTAVAWYQQKPGKSPKLLIYWASTRHTGVPSRFSGSGSGTEFTLTISSVQPDDFATYFCQQYSSYTFGGGTKVEIK
B7: BG87P-Bz6 (antibody, V domains shown)
VH: QIQLVQSGAEVKKPGASVKVSCKASGYSFTDYHINWVRQAPGQRLEWMGWIYPGSGYTKYNEKFKVRVTLTVDTSASTAYMELSSLRSEDTAVYFCARSGIYHYVSSYYFDHWGKGTTVTVSS
VL: DIQMTQSPSTLSASVGDRVTITCKASQDVGTAVAWYQQKPGKAPKLLIYWASTRHTGVPSRFSGSGSGTEFTLTISSVQPDDFATYFCQQYSSYTFGGGTKVEIK
B8: BG87P-Bz7 (antibody, V domains shown)
VH: QIQLVQSGAEVKKPGASVKVSCKASGYSFTDYHINWVRQAPGQRLEWMGWIYPGSGYTKYNEKFKVRVTLTVDTSASTAYMELSSLRSEDTAVYFCARSGIYHYVSSYYFDHWGKGTTVTVSS
VL: DIQMTQSPSTLSASVGDRVTITCKASQDVGTAVAWYQQKPGKSPKLLIYWASTRHTGVPSRFSGSGSGTEFTLTISSLQPDDFATYFCQQYSSYTFGGGTKVEIK
B9: BG87P-Bz8 (antibody, V domains shown)
VH: QIQLVQSGAEVKKPGASVKVSCKASGYSFTDYHINWVRQAPGQRLEWMGWIYPGSGYTKYNEKFKVRVTLTVDTSASTAYMELSSLRSEDTAVYFCARSGIYHYVSSYYFDHWGKGTTVTVSS
VL: DIQMTQSPSTLSASVGDRVTITCKASQDVGTAVAWYQQKPGKSPKLLIYWASTRHTGVPSRFSGSGSGTEFTLTISSVQPDDFATYYCQQYSSYTFGGGTKVEIK
B10: BG87P-m5 (antibody, V domains shown)
VH: QIQLVQSGAEVKKPGASVKVSCKASGYSFTDYHINWVRQAPGQRLEWMGWIYPGSGYTKYNEKFKVRVTLTVDTSASTAYMELSSLRSEDTAVYFCARSGIYHYVSSYYFEHWGKGTTVTVSS
VL: DIQMTQSPSTLSASVGDRVTITCKASQDVGTAVAWYQQKPGKSPKLLIYWASTRHTGVPSRFSGSGSGTEFTLTISSVQPDDFATYFCQQYSSYTFGGGTKVEIK
notes: PTM removal variant of BG87P-Bz0; constant regions not restated (parent: human IgG1/kappa)
B11: BG87P-m6 (antibody, V domains shown)
VH: QIQLVQSGAEVKKPGASVKVSCKASGYSFTDYHINWVRQAPGQRLEWMGWIYPGSGYTKYNEKFKVRVTLTVDTSASTAYMELSSLRSEDTAVYFCARSGIYHYVSSYYFQHWGKGTTVTVSS
VL: DIQMTQSPSTLSASVGDRVTITCKASQDVGTAVAWYQQKPGKSPKLLIYWASTRHTGVPSRFSGSGSGTEFTLTISSVQPDDFATYFCQQYSSYTFGGGTKVEIK
notes: as for B10
B12: BG87P-m7 (antibody, V domains shown)
VH: QIQLVQSGAEVKKPGASVKVSCKASGYSFTDYHINWVRQAPGQRLEWMGWIYPGSGYTKYNEKFKGRVTLTVDTSASTAYMELSSLRSEDTAVYFCARSGIYHYVSSYYFDHWGKGTTVTVSS
VL: DIQMTQSPSTLSASVGDRVTITCKASQDVGTAVAWYQQKPGKSPKLLIYWASTRHTGVPSRFSGSGSGTEFTLTISSVQPDDFATYFCQQYSSYTFGGGTKVEIK
notes: as for B10
B13: BG87P-m8 (antibody, V domains shown)
VH: QIQLVQSGAEVKKPGASVKVSCKASGYSFTDYAINWVRQAPGQRLEWMGWIYPGSGYTKYNEKFKVRVTLTVDTSASTAYMELSSLRSEDTAVYFCARSGIYHYVSSYYFDHWGKGTTVTVSS
VL: DIQMTQSPSTLSASVGDRVTITCKASQDVGTAVAWYQQKPGKSPKLLIYWASTRHTGVPSRFSGSGSGTEFTLTISSVQPDDFATYFCQQYSSYTFGGGTKVEIK
notes: Variant of BG87P-Bz0 with H33A; constant regions not restated (parent: human IgG1/kappa)
B14: BG87P-m1 (antibody, V domains shown)
VH: QIQLQQSGPELVKPGASVKISCKASGYSFTDYHINWVKQRPGQGLEWIGWIYPGSGYTKYNEKFKVKATLTVDTSSSTAYMHLTSLTSEDSAVYFCARSGIYHYVSSYYFEHWGQGTTLTVSS
VL: DIVMTQSHTFMSTSVGDRVSITCKASQDVGTAVAWYQQKPGQSPKLLIYWASTRHTGVPDRFTGSGSGTDFTLTISNVQSEDLADYFCQQYSSYTFGGGTKLEIK
notes: PTM removal variant of chBG87P; constant regions not restated (parent: human IgG1/kappa)
B15: BG87P-m2 (antibody, V domains shown)
VH: QIQLQQSGPELVKPGASVKISCKASGYSFTDYHINWVKQRPGQGLEWIGWIYPGSGYTKYNEKFKVKATLTVDTSSSTAYMHLTSLTSEDSAVYFCARSGIYHYVSSYYFQHWGQGTTLTVSS
VL: DIVMTQSHTFMSTSVGDRVSITCKASQDVGTAVAWYQQKPGQSPKLLIYWASTRHTGVPDRFTGSGSGTDFTLTISNVQSEDLADYFCQQYSSYTFGGGTKLEIK
notes: as for B14
B16: BG87P-m3 (antibody, V domains shown)
VH: QIQLQQSGPELVKPGASVKISCKASGYSFTDYHINWVKQRPGQGLEWIGWIYPGSGYTKYNEKFKGKATLTVDTSSSTAYMHLTSLTSEDSAVYFCARSGIYHYVSSYYFDHWGQGTTLTVSS
VL: DIVMTQSHTFMSTSVGDRVSITCKASQDVGTAVAWYQQKPGQSPKLLIYWASTRHTGVPDRFTGSGSGTDFTLTISNVQSEDLADYFCQQYSSYTFGGGTKLEIK
notes: PTM removal variant of chBG87P (VH V65G); constant regions not restated (parent: human IgG1/kappa)

What follows are binders tested against T1, human claudin 6 (CLDN6) (assay: FACS, HEK293T/human CLDN6 cells).
Experimental: For affinity determination, CLDN6 over-expressing HEK293T cells and cancer cell line PA-1 which express high levels of human CLDN6 were used to evaluate the binding activity of BG87P related engineering variants. Live cells were seeded in 96-well plate, and were incubated with a series of dilutions of chBG87P and engineered variants thereof. Goat anti-human IgG was used as second antibody to detect antibody binding to the cell surface. EC50 values for dose-dependent binding to CLDN6 expressing cell lines were determined by fitting the dose-response data to the four-parameter logistic model with GraphPad Prism. Cell binding activity of 1st round of BG87P humanization variants against HEK293T/human CLDN6 were compared to chBG87P and shown in FIG. 1A.
Beginning with the chBG87P antibody and BG87P-Bz0, several additional amino acid changes in the CDR regions of both VH and VL were made to further improve the biophysical properties for therapeutics use in human. The considerations included removing post translational modifications (PTM), improved heat stability (Tm), while maintaining binding activities, the resulted variants are BG87P-m1 (VH SEQ ID NO: 31 and VL SEQ ID NO: 8), BG87P-m2 (VH SEQ ID NO: 32 and VL SEQ ID NO: 8), BG87P-m3 (VH SEQ ID NO: 33 and VL SEQ ID NO: 8), and BG87P-m4 (VH SEQ ID NO: 34 and VL SEQ ID NO: 8) and BG87P-m5 (VH SEQ ID NO: 35 and VL SEQ ID NO: 14), BG87P-m6 (VH SEQ ID NO: 36 and VL SEQ ID NO 14), BG87P-m7 (VH SEQ ID NO: 37 and VL SEQ ID NO: 14), and BG87P-m8 (VH SEQ ID NO: 38 and VL SEQ ID NO: 14). Cell binding activity of chBG87P and BG87P-Bz0 related PTM removal variants against HEK293T/human CLDN6 was compared with chBG87P and BG87-Bz0, respectively ([…]). Cell binding affinity (EC50) and Emax (MFI) was normalized to chBG87P for directly comparison and ranking (Table 7).
In the case of B1, the EC50 is reported as 2.1 nM, the “Emax ratio to BG87P” value is reported as 0.56 ratio and the “Top MFI Mean” value is reported as 107000 MFI. For B2, the EC50 was 2.19 nM, the “Emax ratio to BG87P” value was 0.52 ratio and the “Top MFI Mean” value was 99700 MFI. With B3 the EC50 was 2.65 nM, the “Emax ratio to BG87P” value was 0.44 ratio and the “Top MFI Mean” value was 84300 MFI. With B4 the EC50 was 2.63 nM, the “Emax ratio to BG87P” value was 0.56 ratio and the “Top MFI Mean” value was 107000 MFI. B5 was tested, and the EC50 was 1.88 nM, the “Emax ratio to BG87P” value was 0.57 ratio and the “Top MFI Mean” value was 110000 MFI. B6 was tested, and the EC50 was 2.55 nM, the “Emax ratio to BG87P” value was 0.73 ratio and the “Top MFI Mean” value was 141000 MFI. For B7, the EC50 was 2.79 nM, the “Emax ratio to BG87P” value was 0.75 ratio and the “Top MFI Mean” value was 144000 MFI. For B8, the EC50 was 2.54 nM, the “Emax ratio to BG87P” value was 0.81 ratio and the “Top MFI Mean” value was 155000 MFI. In the case of B9, the EC50 is reported as 1.71 nM, the “Emax ratio to BG87P” value is reported as 0.68 ratio and the “Top MFI Mean” value is reported as 131000 MFI. With B10 the EC50 was 4.19 nM, the “Emax ratio to BG87P” value was 0.66 ratio and the “Top MFI Mean” value was 126000 MFI. For B11, the EC50 was 2.34 nM, the “Emax ratio to BG87P” value was 0.62 ratio and the “Top MFI Mean” value was 118000 MFI. For B12, the EC50 was 2.43 nM, the “Emax ratio to BG87P” value was 0.7 ratio and the “Top MFI Mean” value was 134000 MFI. B13 was tested, and the EC50 was 48.7 nM, the “Emax ratio to BG87P” value was 0.28 ratio and the “Top MFI Mean” value was 54000 MFI. B14 was tested, and the EC50 was 3.56 nM, the “Emax ratio to BG87P” value was 1.08 ratio and the “Top MFI Mean” value was 207000 MFI. With B15 the EC50 was 2.51 nM, the “Emax ratio to BG87P” value was 1.05 ratio and the “Top MFI Mean” value was 202000 MFI. B16 was tested, and the EC50 was 2.32 nM, the “Emax ratio to BG87P” value was 1.18 ratio and the “Top MFI Mean” value was 227000 MFI.
